According to patent US20260266848A1, “COMPOSITIONS AND METHODS FOR DIAGNOSING AND TREATING DYSTONIA” (Duke University, priority 2023, published 2026):

B1: Dbi (protein, UniProt P31786 2-87, looked up)
Acyl-CoA-binding protein: SQAEFDKAAEEVKRLKTQPTDEEMLFIYSHFKQATVGDVNTDRPGLLDLKGKAKWDSWNKLKGTSKESAMKTYVEKVDELKKKYGI
B2: Adamts5 (protein, UniProt Q9R001 262-930, looked up)
A disintegrin and …: SISRARQVELLLVADSSMARMYGRGLQHYLLTLASIANRLYSHASIENHIRLAVVKVVVLTDKDTSLEVSKNAATTLKNFCKWQHQHNQLGDDHEEHYDAAILFTREDLCGHHSCDTLGMADVGTICSPERSCAVIEDDGLHAAFTVAHEIGHLLGLSHDDSKFCEENFGTTEDKRLMSSILTSIDASKPWSKCTSATITEFLDDGHGNCLLDLPRKQILGPEELPGQTYDATQQCNLTFGPEYSVCPGMDVCARLWCAVVRQGQMVCLTKKLPAVEGTPCGKGRVCLQGKCVDKTKKKYYSTSSHGNWGSWGPWGQCSRSCGGGVQFAYRHCNNPAPRNSGRYCTGKRAIYRSCSVTPCPPNGKSFRHEQCEAKNGYQSDAKGVKTFVEWVPKYAGVLPADVCKLTCRAKGTGYYVVFSPKVTDGTECRPYSNSVCVRGRCVRTGCDGIIGSKLQYDKCGVCGGDNSSCTKIIGTFNKKSKGYTDVVRIPEGATHIKVRQFKAKDQTRFTAYLALKKKTGEYLINGKYMISTSETIIDINGTVMNYSGWSHRDDFLHGMGYSATKEILIVQILATDPTKALDVRYSFFVPKKTTQKVNSVISHGSNKVGPHSTQLQWVTGPWLACSRTCDTGWHTRTVQCQDGNRKLAKGCLLSQRPSAFKQCLLKKC
B3: Ptk2 (protein, UniProt P34152 2-1052, looked up)
Focal adhesion kinase 1: AAAYLDPNLNHTPSSSTKTHLGTGMERSPGAMERVLKVFHYFESSSEPTTWASIIRHGDATDVRGIIQKIVDSHKVKHVACYGFRLSHLRSEEVHWLHVDMGVSSVREKYELAHPPEEWKYELRIRYLPKGFLNQFTEDKPTLNFFYQQVKSDYMQEIADQVDQEIALKLGCLEIRRSYWEMRGNALEKKSNYEVLEKDVGLKRFFPKSLLDSVKAKTLRKLIQQTFRQFANLNREESILKFFEILSPVYRFDKECFKCALGSSWIISVELAIGPEEGISYLTDKGCNPTHLADFNQVQTIQYSNSEDKDRKGMLQLKIAGAPEPLTVTAPSLTIAENMADLIDGYCRLVNGATQSFIIRPQKEGERALPSIPKLANSEKQGMRTHAVSVSETDDYAEIIDEEDTYTMPSTRDYEIQRERIELGRCIGEGQFGDVHQGVYLSPENPALAVAIKTCKNCTSDSVREKFLQEALTMRQFDHPHIVKLIGVITENPVWIIMELCTLGELRSFLQVRKYSLDLASLILYAYQLSTALAYLESKRFVHRDIAARNVLVSSNDCVKLGDFGLSRYMEDSTYYKASKGKLPIKWMAPESINFRRFTSASDVWMFGVCMWEILMHGVKPFQGVKNNDVIGRIENGERLPMPPNCPPTLYSLMTKCWAYDPSRRPRFTELKAQLSTILEEEKVQQEERMRMESRRQATVSWDSGGSDEAPPKPSRPGYPSPRSSEGFYPSPQHMVQTNHYQVSGYPGSHGIPAMAGSIYQGQASLLDQTELWNHRPQEMSMWQPSVEDSAALDLRGMGQVLPPHLMEERLIRQQQEMEEDQRWLEKEERFLKPDVRLSRGSIDREDGSFQGPTGNQHIYQPVGKPDPAAPPKKPPRPGAPGHLSNLSSISSPADSYNEGVKLQPQEISPPPTANLDRSNDKVYENVTGLVKAVIEMSSKIQPAPPEEYVPMVKEVGLALRTLLATVDETIPALPASTHREIEMAQKLLNSDLGELISKMKLAQQYVMTSLQQEYKKQMLTAAHALAVDAKNLLDVIDQARLKMLGQTRPH
B4: Atg7 (protein, UniProt Q9D906 1-698, looked up)
Ubiquitin-like …: MGDPGLAKLQFAPFNSALDVGFWHELTQKKLNEYRLDEAPKDIKGYYYNGDSAGLPTRLTLEFSAFDMSASTPAHCCPAMGTLHNTNTLEAFKTADKKLLLEQSANEIWEAIKSGAALENPMLLNKFLLLTFADLKKYHFYYWFCCPALCLPESIPLIRGPVSLDQRLSPKQIQALEHAYDDLCRAEGVTALPYFLFKYDDDTVLVSLLKHYSDFFQGQRTKITVGVYDPCNLAQYPGWPLRNFLVLAAHRWSGSFQSVEVLCFRDRTMQGARDVTHSIIFEVKLPEMAFSPDCPKAVGWEKNQKGGMGPRMVNLSGCMDPKRLAESSVDLNLKLMCWRLVPTLDLDKVVSVKCLLLGAGTLGCNVARTLMGWGVRHVTFVDNAKISYSNPVRQPLYEFEDCLGGGKPKALAAAERLQKIFPGVNARGFNMSIPMPGHPVNFSDVTMEQARRDVEQLEQLIDNHDVIFLLMDTRESRWLPTVIAASKRKLVINAALGFDTFVVMRHGLKKPKQQGAGDLCPSHLVAPADLGSSLFANIPGYKLGCYFCNDVVAPGDSTRDRTLDQQCTVSRPGLAVIAGALAVELMVSVLQHPEGGYAIASSSDDRMNEPPTSLGLVPHQIRGFLSRFDNVLPVSLAFDKCTACSPKVLDQYEREGFTFLAKVFNSSHSFLEDLTGLTLLHQETQAAEIWDMSDEETV
B5: Extl2 (protein, UniProt Q9ES89 1-330, looked up)
Exostosin-like 2: MMRGCHICKLPGRVMGIRVLRFSLVVILVLLLVAGALTNLLPNIKEDKMLTLRREIKSPSKSALDSFTLIMQTYNRTDLLLRLLNHYQAVPSLHKVIVVWNNVGEKGPEELWNSLGPHPIPVIFKPQTANKMRNRLQVFPEVETNAVLMVDDDTLISAQDLVFAFSIWQQFPDQIIGFVPRKHVSTSSGIYSYGGFELQTPGPGNGDQYSMVLIGASFFNSKYLELFQKQPAAVHALIDETQNCDDIAMNFLVTRHTGKPSGIFVKPINMVNLEKETNGYSGMWHRAEHFLQRSYCINKLVNIYDGMPLKYSNIMISQFGFPYANHKSKM
B6: Pdia3 (protein, UniProt P27773 25-505, looked up)
Protein disulfide-isomerase A3: SDVLELTDENFESRVSDTGSAGLMLVEFFAPWCGHCKRLAPEYEAAATRLKGIVPLAKVDCTANTNTCNKYGVSGYPTLKIFRDGEEAGAYDGPRTADGIVSHLKKQAGPASVPLRTEEEFKKFISDKDASVVGFFRDLFSDGHSEFLKAASNLRDNYRFAHTNIESLVKEYDDNGEGITIFRPLHLANKFEDKTVAYTEKKMTSGKIKKFIQDSIFGLCPHMTEDNKDLIQGKDLLTAYYDVDYEKNAKGSNYWRNRVMMVAKKFLDAGHKLNFAVASRKTFSHELSDFGLESTTGEVPVVAIRTAKGEKFVMQEEFSRDGKALEQFLQEYFDGNLKRYLKSEPIPESNEGPVKVVVAENFDDIVNEEDKDVLIEFYAPWCGHCKNLEPKYKELGEKLSKDPNIVIAKMDATANDVPSPYEVKGFPTIYFSPANKKLTPKKYEGGRELNDFISYLQREATNPPIIQEEKPKKKKKAQEDL

What was measured:
[1] = tested on: DYT-TOR1A MEF EVs; test: Quantitative LC-MS/MS proteomics of EVs from drug-treated DYT-TOR1A MEF cultures (ritonavir, salubrinal); type: cell-based, mouse; set-up: key to RTV Corrective Direction / RTV Corrective Direction, Grwd1 / RTV Corrective Direction, Srrm2 / RTV Corrective Direction, Rbm17 / RTV Corrective Direction, Dcaf8 / RTV Corrective Direction, Edil3 / RTV Corrective Direction, Timp3 / RTV Corrective Direction, Heatr3 / RTV Corrective Direction, Brd4 / RTV Corrective Direction, P3h4 / RTV Corrective Direction, Pacsin3 / RTV Corrective Direction, Naa50 / RTV Corrective Direction, Lpar6 / RTV Corrective Direction, Ndrg1 / RTV Corrective Direction, Kntc1 / RTV Corrective Direction, Cdk11b / RTV Corrective Direction, Sumo1 / RTV Corrective Direction, Lsm4 / RTV Corrective Direction, Hmga2 / RTV Corrective Direction, Cstf1 / RTV Corrective Direction, Tes / RTV Corrective Direction, Sbno1 / RTV Corrective Direction, Unc119b / RTV Corrective Direction, Cfdp1 / RTV Corrective Direction, Sec61b: YES = protein abundance effect opposite to DYT/WT; settings: EV protein abundance; for RTV Corrective Direction: DYT + RTV (ritonavir) vs DYT, direction compared with DYT/WT; for DYT + RTV/DYT Cohen's d: ritonavir (RTV)-treated DYT vs DYT
[2] = tested on: WT MEF EVs; test: Quantitative LC-MS/MS proteomics of EVs from ISRIB-treated WT MEF cultures; type: cell-based, mouse; set-up: key to ISRIB and DYT Parallel Direction / ISRIB and DYT Parallel Direction, Ctdsp1 / ISRIB and DYT Parallel Direction, Pcdh19 / ISRIB and DYT Parallel Direction, Tspan7 / ISRIB and DYT Parallel Direction, Myo1e / ISRIB and DYT Parallel Direction, Plpp3 / ISRIB and DYT Parallel Direction, Sh3bp4 / ISRIB and DYT Parallel Direction, Dnajc7 / ISRIB and DYT Parallel Direction, Drg1 / ISRIB and DYT Parallel Direction, Maea: YES = protein abundance effect similar to DYT/WT; settings: EV protein abundance; for WT + ISRIB/WT Cohen's d: ISRIB-treated WT vs WT; for ISRIB and DYT Parallel Direction: WT + ISRIB vs WT, direction compared with DYT/WT

Molecule | RTV Corrective Direction [1] | DYT + RTV/DYT Cohen's d [1] | WT + ISRIB/WT Cohen's d [2] | ISRIB and DYT Parallel Direction [2]
B1 | YES | 0.91 | −2.44 | YES
B2 | YES | 0.76 | −2.06 | YES
B3 | YES | 0.10 | −3.26 | YES
B4 | YES | 0.61 | −2.35 | YES
B5 | YES | 0.12 | −1.42 | YES
B6 | YES | 0.37 | 0.39 | YES
